Test results published in a protein production outcome set (Wang et al. 2014).

Test: label from the status in PepcDB records

Sequence	protein production
MANISLKQGQFVTNSLPNKWKFRNLTKILLRRRFIVLGVSCMVISATSFTAITNKPTYKSQMQILVSPNVSEEVGITNNNIDIPISIEQYSVQKNLMQSSKLIDKVVNLLSFDYPNITKENILGKTENSENSPLKVTQLETNKGAKQVLSPVFEISFQDNDPLKTKKVLLALQKVYQDYNLERRQERFNQGLAFINARLPVIKQQLRQAERKLEQFRKKHNLLDPELQSQVLIKSLTKTQEQLQLTRTQLQDINSRYQNLEERITEASQKALVSMRLAQSSRYKTLTSELQKTEQSLAKEQLRYTDDSPIVQSLKQQRRSQLTLVRQELKRLTAELKTQTTPEPEQLVGVDPNLVEEFVQVQTTALGLIANEKSLRESEQRIRSELSKYPSLIAEYQRLLPEVETQRKTLEQMLQAQQSMGMKIAHGGFDWLVLEEANLGTYVGNDRFWLVFVGMITGPILGVVLALIWGMRHRIIHSAQDLQKVSNLRLLGTVPKLAPRTMEKRLPNLSWLGGRNLTESEEVGNSWLPCHETLDMVYQNTQILKYPFPFKSMMVTSALPGEGRTTLAMGLAASAAHMHRRVLLIDANLRSPKLHKILQLSNDWGLSLLLLDETNTEVQDYIQPIHPSIDILTAGPTPEDAVELLSSQRLKDLIELFEETYDLVLIDAPPILGTVDGRIVASYCHGIMMVGRIGWVTQTELTQAVEILNSLNLVGIIANDMSSYHKG	failed
MAASLSEGVPETEDRKRPQFGNRFLSDPARVFHHNAWDNVKWSEEQAAAAERKVQENSSQLVCPEKQADYEVNAHKYWDDFYKVHENGFFKDRHWLFTEFPELAPSHDHLVNLHLEKQKNEVSKPRSSEDGPGLAAEQHKRPCTSHGCETRVPPVEEPVTQKLTHLEICADDFPGSSATYRILEVGCGVGNTVFPILQTNNNPDLFVYCCDFSATAIELVKTNSEYDPSRCFAFVHDLCDEDQSYPMPKDSLDVIVLIFVLSAIVPDKMQKAISKLSRLLKPGGVMLLRDYGRYDMAQLRFKKGQCLSGNFYVRGDGTRVYFFTQDELDTLFTAAGLEKVQNVVDRRLQVNRGKQLTMYRVWIQCKYSKPLVPSASQHVPTPHTTXVLRIWGFC	failed
RKTEKVVNNGIPWFDDRGEIVNAHGACIVEENGRYYLFGEYKSDKSNAFPGFSCYSSDDLVNWKFERVVLPMQSSGILGPDRVGERVKVMKCPSTGEYVMYMHADDMNYKDPHIGYATCSTIAGEYKLHGPLLYEGKPIRRWDMGTYQDTDGTGYLLLHGGIVYRLSKDYRTAEEKVVSGVGGSHGESPAMFKKDGTYFFLFSNLTSWEKNDNFYFTAPSVKGPWTRQGLFAPEGSLTYNSQTTFVFPLKCGEDTIPMFMGDRWSYPHQASAATYVWMPMQVDGTKLSIPEYWPSWDVDKLKPVNPLRKGKTVDLKKITFSKEADWKVEEGRISSNVKGSTLSIPFTGSCVAVMGETNCHSGYARMNILDKKGEKIYSSLVDFYSKANDHATRFKTPQLAEGEYTLVIEVTGISPTWTDKTKRIYGSDDCFVTITDIVKL	not failed
MNRNLLLLLCSLFCFIAIGKPSDFPPVPNPPKLINDFAGMLSPAEVAELERKVNTFNDSTSIEISVVIITNLGDYDIAEYAFQLGALWGIGKDKKDNGVLLLISKENRKAFIATGYGMEGVLPDARCKRIIQAELIPQFKRSNYFNGINFTIDAIMRYSKNEYTADPVAANANRIKPAYVLLFIIGVIILVSFLNRNNNSGSNRGGNNGGYGSGGGGLLGGLLGGAIGSGYRGRSYGGGFGSGSSGGGFGGFGGGGFGGGGAGGDW	failed
MRNCIFYSLVLALLFLIGSCKDSDDNKTTGATYDPNQPVTVESFMPVEGKLREKVIVKGSNFGTDKSKVKVYFVDEAAERLSTVIGIDNNTLYCLAPRQLPGGNRIKVIVDGKEVTTDGTFKYEQAQNVSTISGSASKDGNDDGDLASAKFKYMWGIAAVGNNTVLAYQRDDPRVRLISVDDNKVTTVHPGFKGGKPAVTKDKQRVYSIGWEGTHTVYVYMKASGWAPTRIGQLGSTFSGKIGAVALDETEEWLYFVDSNKNFGRFNVKTQEVTLIKQLELSGSLGTNPGPYLIYYFVDSNFYMSDQNLSSVYKITPDGECEWFCGSATQKTVQDGLREEALFAQPNGMTVDEDGNFYIVDGFKGYCLRKLDILDGYVSTVAGQVDVASQIDGTPLEATFNYPYDICYDGEGGYWIAEAWGKAIRKYAVE	failed
MGHHHHHHSHSLDSQKGQLVRGKVCEYSTDGAYIDIGGKAPAFLPKREAALHAVLDLEAHLPKDEELEFLVIRDQNEDGQVTVSLRALALEQAWTRVAELQEG	not failed
MRINLQSLGCRLNEAELESWAREFQAAGHRLVSETGDADLIVLNSCAVTAEAVRKSRQMIRRTQRLSPRARLVLSGCYATLHGDEAAALGVDLVVSNADKSRLVEIAARELALEAMPEFSTEPGEAALFALGRQRAFVKVQDGCRYRCTFCIVTVARGEERSRLPAEVIREIRRLQAEGVQEVVLTGVHLGGYGSDLGLPLDALIRSILQETEIPRLRLGSLEPWDLPPGFFDLFENPRFMPHLHLPLQSGSDTVLKRMARRCKSEEFARLADHARRQVPDINITTDIIVGFPGETEREWEESLQFIETIGFGDIHVFTYSVREGTKAAAMGGHVPAEIKKERSRVLHELALGQKRALLGRFVGREMPVLWENRRDGADRGYTPNYLRVAIQTPETGLTNRITPVRLVKVDASGEFLWCGPVTLPPAAPADTRWRR	failed
MLKSVNLPVCHSLRNHLAVSSISTTPPSLIIPLLSPIFLRISSSSSNSVILNFSVKASFLVSKILLINLRAGFTGSLILSAGKPPFITSSSKSSIGTTPGVSKSQIFLVSLIICLPFVYPGIGAVPTECFPLSTFIIVLFPTFGYPINATLTLSLLIIFAIFFSSLLRIPVPFLSLAEIKTTGISLFLLYSSAHSLGTKSALFITNKSFLPLSKTILSSFLFLVPMGSLASTTSTTMSASSITSFTIAQAFFCFIPHHRYFKDYGTPWGIRGARVGTLDVGLILGSKPYFFWLHAFSERYYVG	failed
MNSKIMYHIFPDRFHRYGEDRPGLIKWGEKPSRDSFFGGNLEGIRQKIQYIKDLRVDHIYLNPLFKSKSNHRYDVDDYYSIDELLGTDQDLKNLVSDAHASGIKIVLDMVFNHTSTDFPAFRDVIEKGRNSPYYRWYIFHRDEFTVFRGRGKRGSYPSYETFMGYGGMPKLDHRNPEVRRYCINVLKYYVQKFDVDGFRYDVAHSIYSKFFEEVFSEIGTGILHIGEAWCLPTYLVNGSAWQSYTNYFLGGSIIDFLKGSITLGEFYDRVQRMLIVNGIEKQQAMMNVLDSHDTPRILRILNGDRKKVKLAYSILYLFDGIATIYYGDEVGLDGGKDPDDRRCFPWDSMDEDMHSFFMNLGDLREKYSLGSALEHHHHHH	failed
ARYYQHNAIEAVLEAISQGKNRMLLTLATGTGKTFIAFQLAWKLFQAKWNISGEPTHRPRILFLADRNILANQAFNAFGAFDDDALVRIDPKEIKKKGKVPKNGSLFFSIFQTFMTTKGDKDFAHFYDYAPDFFDFIIIDECHRGGANDESTWRKILEYFSPAVQLGLTATPKRDVNGDTYKYFGEPLYTYSLKEGINDGYLTPFKVVQFTTTLDEYLYDPDDDVIEGDIDEARTYEEKDFNRIIEMEEREKQRVQLFMEAINQNEKTLVFCATQDHALAVRDLINQMKISTDPNYCVRVTANDGSIGETNLKTFQDNEKAIPTILTTSRKLSTGVDARNVRNIVLLRPINSMIEFKQIIGRGTRLFDNKDYFTIYDFVRAYEHFNDDEWDGEPTEPVAIDPEPRKEREKIDLDLEDEPEENRKPQKIKVKLADGKERELAHTQTTTFWDADGKPISAQEFIEKLFGDLPDLFKDEAELRTIWGKPDTRKSFLTGLAE	failed
MQGLVNMVYQQTERLGYKNLEMIKGLDRTENYSKLKKYYRSCVKEYELSNKAIEEAKGFASSKAYRSASEAAARAFDSISMCEAYLEGSKTPGYVTTRNWWFERMCDIDKIFTDLLISAKF	failed
MLDLLVVAPHPDDGELGCGGTLARAKAEGLSTGILDLTRGEMGSKGTPEEREKEVAEASRILGLDFRGNLGFPDGGLADVPEQRLKLAQALRRLRPRVVFAPLEADRHPDHTAASRLAVAAVHLAGLRKAPLEGEPFRVERLFFYPGNHPFAPSFLVKISAFIDQWEAAVLAYRSQFTGEAASETVGPKGVEARKAMRRYWGNYLGVDYAEPFVSPLPVLYVPWSRA	not failed
MRIPYIDCGMNSLFFITLLGSFFTVAQANSSSDLLELPATNSALAIKSVLMAMTPNNDAILVVGERGHIINWQNDDNWQQLQSPVSVAITDVTILSDGSKVAVGHDGVILKVDSNSTTWRKVFTGKEITQFQIAQLKQQYQSLEQVILQTQDEDELEELTYQLDDLTFAIEDNQLELKSGPNKPLLSVTSTSNDTLFASGAYGILLSSKDKGETWQLVSNHLDNPDRFHLNTVIATADDQLYIVGENGMGFHSTDVGQTWSVMTLPYSGSLFGILANTVKTHTISTDDINSTKNKTQLVAFGLQGNIMVSLDGGGNWQHIKLPRSTSLLGGNFSKQGKVYLVGHGGVIVSFYPENLSTLTIKKHPSGAALSSVLVKDNSLILAGQFGISQWPIEAEE	failed
MSYSPSLKEIIAILQKYTSKNYQSNCKTRPDGKLELSLNGVFEEIVKTPGKTRYVTHKQLDQKLKDFKQDLMVELHDTFATKTDLKESEARINQKLEALIQIVMVQGEQIKVHGEQINKLTQAVEKQGEKIEAQGQQIQKVNETLNFVVESLGSIHKRLDSMEGRLDSMENRLDKLESKLEHHHHHH	not failed
MPLSYSSPSLSEERSDDPSKYDGDFGVPQICFCGKQLELVERLIGDQKKTFLKCPMSGQDDNYHVDKGWDLVVHEQCFCIDKRFGEHRELIQNAFKFGGDSNRLQINQIRAEIEDLKDRLDKKDAEITRLMDALGKK	failed
MSRKYLIRITELERLLSEQAEALRQKDQQLSLVEETEAFLRSALARAEEKIEEEEREIEHLRAQIEKLRRMLFGTRSEKLQREVEQAEAQLKQREQESDRYSGREDDPQVPRQLRQSRHRRPLPAHLPREIHRLEPEESCCPECGSELDYLGEVSAEQLELVSSALKVIRTVRVKKACTKCDCIVEAPAPSRPIERGIAGSGLLARVLTGKYCEHLPLYRQSEIFARQGIELSRALLSNWVDACCQLMTLLNDTLYRYVMNTRKVHTDDTPVKVLAPGRKKAKTGRIWTYVRDDRNAGSSEPPAVWFAYSPDRQGKHPVQHLRPFRGILQADAFSGYDRLFSAEREGGALTEVACWAHARRKIHDVYISSKSATAEEALKRISELYAIEDEIRGLPESERLAVRQQRSKVLLTSLHEWMVEKNGTLSKKSRLGEACSYVLNQWDALCYYSDDGLAEADNNAAERALRAVCLGKKNFMFFGSDHGGERGALLYGLIGTCRLNGIDPEAYLRHILSVLPEWPSNRVDELLPWNVVLTNK	failed
MPVDAKTKYKAKKIKIVFFDIDDTLRVKKTGYIPESIKAVFKGLKEKGILTGIATGRGYYGVVEEILDLEPDYFVTINGTYVINRKGEEIYNQPLAREVTEAFVAWCKEIGIAWGFAGKDKPVVSERSELIDDAIVPIYGICDVEPDFHLTNDVYQMWTFAENNGDLKLPEELAAHVRLVPWHEHSSDVVATGISKASGVGHVLEHENLTPVNAMMFGDGPNDKEIFDYVGLKIAMGNATPELKAKADYVTGTVEEDGIFNALEELGLVEKELHFPQLDLDTVEGPVATIKTNHGDLVIKLFPDHAPLAVTNFVNLAKSGYYDGVIFHRIIKDFMIQGGDPTGTGMGGESSFGGSFQDEFSEELYNLRGALSMANAGPDTNGSQFFIVQAPEIPYAKKELERGGWPAPIAEAYAENGGTPHLDRRHTVFGHLVDEASYKVLDEIANVEVGTQDKPLEEVVIETIEVTDLEHHHHHH	not failed
YANEEKGLEIAQERKARDEGWGDSIATMEMILKNAQGESSTRLMRLKSLEVEGDGDKGLTIFDQPRDVTGTAFLNHSHTIGADDQWLYLPALKRVKRISSRNKSGPFMGSEFAYEDLSSFEIEKYRFNHLKDEKFNGQDVFVLEQIPTDKNSGYTKQVVWLDKAHYRPLKVEFYDRKGALLKTLTFANYKQYLDKYWRAHTMAMTNHQTGKSTELNTSDLRFQTGLEENDFNKNVLKRVK	failed
